Test results reported in publication PMC9482650, “Quantitative fragmentomics allow affinity mapping of interactomes” (Nature Communications, 2022).

T1: PDZD2_2, O15018
T1 sequence (O15018 329-429, limits assumed, looked up): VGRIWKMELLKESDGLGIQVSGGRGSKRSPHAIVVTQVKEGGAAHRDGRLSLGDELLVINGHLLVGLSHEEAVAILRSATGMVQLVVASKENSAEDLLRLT

T2: SNTA1, Q13424
T2 sequence (Q13424 82-180, limits assumed, looked up): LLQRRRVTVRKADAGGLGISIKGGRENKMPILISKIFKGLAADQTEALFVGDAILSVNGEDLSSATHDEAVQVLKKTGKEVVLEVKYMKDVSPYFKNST

T3: DFNB31_2, Q9P202
T3 sequence (Q9P202 274-371, limits assumed, looked up): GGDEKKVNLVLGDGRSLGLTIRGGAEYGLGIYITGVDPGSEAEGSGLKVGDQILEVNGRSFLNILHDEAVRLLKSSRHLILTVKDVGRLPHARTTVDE

T4: DLG3_2, Q92796
T4 sequence (Q92796 221-321, limits assumed, looked up): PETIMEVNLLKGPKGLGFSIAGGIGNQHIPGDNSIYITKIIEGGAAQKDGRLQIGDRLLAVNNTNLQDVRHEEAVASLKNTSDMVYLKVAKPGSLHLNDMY

T5: PDZRN3_1, Q9UPQ7
T5 sequence (Q9UPQ7 244-349, limits assumed, looked up): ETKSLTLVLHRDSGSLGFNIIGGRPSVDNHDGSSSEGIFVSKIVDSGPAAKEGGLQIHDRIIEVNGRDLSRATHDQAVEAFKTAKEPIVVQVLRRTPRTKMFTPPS

T6: MPDZ_12, O75970
T6 sequence (O75970 1857-1958, limits assumed, looked up): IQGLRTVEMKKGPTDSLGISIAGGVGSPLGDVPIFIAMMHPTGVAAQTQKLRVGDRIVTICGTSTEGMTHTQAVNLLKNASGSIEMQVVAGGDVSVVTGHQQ

T7: ARHGAP21, Q5T5U3
T7 sequence (Q5T5U3 45-169, limits assumed, looked up): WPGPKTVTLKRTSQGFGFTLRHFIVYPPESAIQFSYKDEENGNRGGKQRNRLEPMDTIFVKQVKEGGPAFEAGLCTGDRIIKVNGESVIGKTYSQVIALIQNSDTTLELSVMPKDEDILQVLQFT

T8: GRIP1_4, Q9Y3R0
T8 sequence (Q9Y3R0 467-571, limits assumed, looked up): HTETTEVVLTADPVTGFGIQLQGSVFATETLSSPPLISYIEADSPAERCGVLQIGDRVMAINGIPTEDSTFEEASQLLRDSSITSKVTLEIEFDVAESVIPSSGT

T9: MPDZ_5, O75970
T9 sequence (O75970 695-796, limits assumed, looked up): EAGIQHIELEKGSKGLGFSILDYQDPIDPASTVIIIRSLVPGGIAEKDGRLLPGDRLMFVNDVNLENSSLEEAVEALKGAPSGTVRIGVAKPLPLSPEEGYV

T10: DFNB31_3, Q9P202
T10 sequence (Q9P202 811-907, limits assumed, looked up): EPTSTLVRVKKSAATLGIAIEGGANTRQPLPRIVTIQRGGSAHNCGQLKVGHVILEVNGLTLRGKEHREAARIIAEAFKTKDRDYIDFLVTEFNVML

T11: TX1BP3, O14907
T11 sequence (O14907 10-122, limits assumed, looked up): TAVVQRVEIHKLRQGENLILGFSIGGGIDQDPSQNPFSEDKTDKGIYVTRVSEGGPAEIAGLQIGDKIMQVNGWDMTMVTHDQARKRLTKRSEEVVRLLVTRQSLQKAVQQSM

T12: MPDZ_10, O75970
T12 sequence (O75970 1624-1722, limits assumed, looked up): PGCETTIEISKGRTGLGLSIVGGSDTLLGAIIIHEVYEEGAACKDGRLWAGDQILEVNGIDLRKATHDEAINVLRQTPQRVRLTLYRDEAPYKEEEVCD

T13: MPP7, Q5T2T1
T13 sequence (Q5T2T1 134-230, limits assumed, looked up): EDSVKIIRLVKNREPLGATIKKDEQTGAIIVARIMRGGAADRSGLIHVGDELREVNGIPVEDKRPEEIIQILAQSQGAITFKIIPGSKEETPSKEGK


Tests used:
Assay in all cases: holdup assay
Set-up in all cases: key: below the threshold = too weak to quantify, mostly under pKd 3.1 to 4
Details in all cases: plain residues with an end cap or a label only (N-terminal biotin on a linker: ado-ado)
PDLIM1, O00151 = molecular target: PDLIM1, O00151
PDZD2_2, O15018 = molecular target: T1, PDZD2_2, O15018
SNTA1, Q13424 = molecular target: T2, SNTA1, Q13424
GRIP2_6, Q9C0E4 = molecular target: GRIP2_6, Q9C0E4
DFNB31_2, Q9P202 = molecular target: T3, DFNB31_2, Q9P202
DLG3_2, Q92796 = molecular target: T4, DLG3_2, Q92796
IL16_1, Q14005 = molecular target: IL16_1, Q14005
HTRA1, Q92743 = molecular target: HTRA1, Q92743
PDZRN3_1, Q9UPQ7 = molecular target: T5, PDZRN3_1, Q9UPQ7
MPDZ_12, O75970 = molecular target: T6, MPDZ_12, O75970
ARHGAP21, Q5T5U3 = molecular target: T7, ARHGAP21, Q5T5U3
GRIP1_4, Q9Y3R0 = molecular target: T8, GRIP1_4, Q9Y3R0
Inadl_4, Q8NI35 = molecular target: Inadl_4, Q8NI35
MPDZ_5, O75970 = molecular target: T9, MPDZ_5, O75970
TJP1_2, Q07157 = molecular target: TJP1_2, Q07157
MAGI2_2, Q86UL8 = molecular target: MAGI2_2, Q86UL8
MAGI3_2, Q5TCQ9 = molecular target: MAGI3_2, Q5TCQ9
DFNB31_3, Q9P202 = molecular target: T10, DFNB31_3, Q9P202
TX1BP3, O14907 = molecular target: T11, TX1BP3, O14907
LIMK2, P53671 = molecular target: LIMK2, P53671
FRMPD3, Q5JV73 = molecular target: FRMPD3, Q5JV73
MPDZ_10, O75970 = molecular target: T12, MPDZ_10, O75970
MPP7, Q5T2T1 = molecular target: T13, MPP7, Q5T2T1
Inadl_3, Q8NI35 = molecular target: Inadl_3, Q8NI35
Inadl_3, Q8NI35, sequence (Q8NI35 359-469): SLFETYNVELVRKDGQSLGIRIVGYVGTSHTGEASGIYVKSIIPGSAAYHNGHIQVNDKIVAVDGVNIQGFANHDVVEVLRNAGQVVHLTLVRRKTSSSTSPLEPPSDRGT

PDLIM1, O00151, sequence (O00151 1-87): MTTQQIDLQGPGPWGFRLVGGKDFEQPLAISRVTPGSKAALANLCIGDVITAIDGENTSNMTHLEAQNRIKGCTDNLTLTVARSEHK
MAGI3_2, Q5TCQ9, sequence (Q5TCQ9 398-503): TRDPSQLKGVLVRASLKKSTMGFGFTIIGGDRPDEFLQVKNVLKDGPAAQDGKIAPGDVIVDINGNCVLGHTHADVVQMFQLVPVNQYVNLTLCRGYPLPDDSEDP
FRMPD3, Q5JV73, sequence (Q5JV73 12-100): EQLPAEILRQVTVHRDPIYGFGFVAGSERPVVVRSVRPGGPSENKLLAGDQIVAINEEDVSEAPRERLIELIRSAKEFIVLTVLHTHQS
MAGI2_2, Q86UL8, sequence (Q86UL8 410-522): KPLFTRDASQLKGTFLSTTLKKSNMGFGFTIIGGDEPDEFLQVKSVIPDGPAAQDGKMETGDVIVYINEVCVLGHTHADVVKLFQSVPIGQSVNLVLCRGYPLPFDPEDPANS
HTRA1, Q92743, sequence (Q92743 360-477): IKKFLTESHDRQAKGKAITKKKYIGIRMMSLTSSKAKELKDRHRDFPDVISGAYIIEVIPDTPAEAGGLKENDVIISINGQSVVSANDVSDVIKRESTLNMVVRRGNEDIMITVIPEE
TJP1_2, Q07157, sequence (Q07157 181-274): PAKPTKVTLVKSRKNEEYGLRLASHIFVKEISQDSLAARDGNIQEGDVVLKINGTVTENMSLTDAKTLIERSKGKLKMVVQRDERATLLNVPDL
LIMK2, P53671, sequence (P53671 143-248): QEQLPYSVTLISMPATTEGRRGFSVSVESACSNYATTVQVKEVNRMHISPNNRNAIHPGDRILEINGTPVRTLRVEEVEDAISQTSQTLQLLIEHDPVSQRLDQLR
Inadl_4, Q8NI35, sequence (Q8NI35 547-651): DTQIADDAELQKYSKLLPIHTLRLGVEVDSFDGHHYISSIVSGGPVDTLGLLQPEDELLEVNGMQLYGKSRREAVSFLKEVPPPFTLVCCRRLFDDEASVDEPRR
IL16_1, Q14005, sequence (Q14005 210-306): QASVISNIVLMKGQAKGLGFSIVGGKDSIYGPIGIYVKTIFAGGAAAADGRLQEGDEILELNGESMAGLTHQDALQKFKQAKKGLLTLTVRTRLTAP
GRIP2_6, Q9C0E4, sequence (Q9C0E4 648-740): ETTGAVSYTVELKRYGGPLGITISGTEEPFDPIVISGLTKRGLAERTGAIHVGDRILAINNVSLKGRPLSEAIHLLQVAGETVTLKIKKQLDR

pKd (PDLIM1, O00151) | pKd (PDZD2_2, O15018) | pKd (SNTA1, Q13424) | pKd (GRIP2_6, Q9C0E4) | pKd (DFNB31_2, Q9P202) | pKd (DLG3_2, Q92796) | pKd (IL16_1, Q14005) | pKd (HTRA1, Q92743) | pKd (PDZRN3_1, Q9UPQ7) | pKd (MPDZ_12, O75970) | pKd (ARHGAP21, Q5T5U3) | pKd (GRIP1_4, Q9Y3R0) | pKd (Inadl_4, Q8NI35) | pKd (MPDZ_5, O75970) | pKd (TJP1_2, Q07157) | pKd (MAGI2_2, Q86UL8) | pKd (MAGI3_2, Q5TCQ9) | pKd (DFNB31_3, Q9P202) | pKd (TX1BP3, O14907) | pKd (LIMK2, P53671) | Binder | other results
below the threshold | 4.66 | below the threshold | 3.8 | below the threshold | 4.02 | below the threshold | 4.45 | below the threshold | below the threshold | 3.57 | below the threshold | below the threshold | below the threshold | 3.56 | below the threshold | below the threshold | 3.6 | below the threshold | below the threshold | EDGESWEYQI [TRPV6, Q9H1D0] | pKd (FRMPD3, Q5JV73): below the threshold; pKd (MPDZ_10, O75970): below the threshold; pKd (MPP7, Q5T2T1): 5.06; pKd (Inadl_3, Q8NI35): 5.33
3.68 | 5.3 | below the threshold | below the threshold | below the threshold | 4.16 | below the threshold | 4.53 | below the threshold | 3.92 | 4.17 | below the threshold | below the threshold | below the threshold | below the threshold | below the threshold | below the threshold | 3.6 | below the threshold | below the threshold | PYSESDDDWC [CACNA1A, O00555] | pKd (FRMPD3, Q5JV73): 3.48; pKd (MPDZ_10, O75970): below the threshold; pKd (MPP7, Q5T2T1): below the threshold; pKd (Inadl_3, Q8NI35): below the threshold
below the threshold | 4.71 | below the threshold | below the threshold | below the threshold | 4.32 | below the threshold | below the threshold | below the threshold | below the threshold | below the threshold | below the threshold | below the threshold | below the threshold | below the threshold | 3.65 | 3.5 | 3.59 | below the threshold | below the threshold | AQRARSPSDV [GPR12, P47775] | pKd (FRMPD3, Q5JV73): below the threshold; pKd (MPDZ_10, O75970): 4.09; pKd (MPP7, Q5T2T1): 3.59; pKd (Inadl_3, Q8NI35): below the threshold
